# Assay results from the supplement of paper PMC9112550, “Optimization of the antimicrobial peptide Bac7 by deep mutational scanning” (BMC Biology, 2022).
# System: Escherichia coli TOP10
# Experiment: shrunken log2 fold change of peptide-encoding DNA abundance (4.5 h post-induction vs induction); higher = less antimicrobial activity (less host growth inhibition)
# Details: time post-induction: 4.5 h; library: site-saturation at positions 5, 18, 19, 20
# 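Further: peptides expressed intracellularly from a pBAD plasmid library in pooled LB shake-flask culture, induced with 0.3% L-arabinose, DNA abundance read by NGS, three biological replicates, DESeq2 with apeglm shrinkage.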
row,Sequence,shrunken log2 fold change
1,RRIRQRPPRLPRPRPRPCCCPRP,0.0589
2,RRIRARPPRLPRPRPRPPEDPRP,0.308
3,RRIRLRPPRLPRPRPRPYICPRP,-0.0262
4,RRIRYRPPRLPRPRPRPWWEPRP,-0.0644
5,RRIRMRPPRLPRPRPRPNNWPRP,-0.0238
6,RRIRFRPPRLPRPRPRPVHKPRP,-0.142
7,RRIRCRPPRLPRPRPRPFRDPRP,-0.0732
8,RRIRYRPPRLPRPRPRPRAGPRP,0.461
9,RRIRTRPPRLPRPRPRPIKVPRP,0.0474
10,RRIRGRPPRLPRPRPRPGAEPRP,1.68
11,RRIRMRPPRLPRPRPRPIQCPRP,-0.239
12,RRIRGRPPRLPRPRPRPVLNPRP,0.469
13,RRIRRRPPRLPRPRPRPKHHPRP,0.346
14,RRIRNRPPRLPRPRPRPSCNPRP,-0.485
15,RRIRGRPPRLPRPRPRPGFKPRP,0.354
16,RRIRCRPPRLPRPRPRPSTDPRP,-0.348
17,RRIRPRPPRLPRPRPRPHKTPRP,-0.0296
18,RRIRSRPPRLPRPRPRPKHRPRP,-0.00685
19,RRIRERPPRLPRPRPRPRGTPRP,0.0483
20,RRIRQRPPRLPRPRPRPEHWPRP,0.0788
21,RRIRLRPPRLPRPRPRPDEKPRP,-0.00968
22,RRIRFRPPRLPRPRPRPAQHPRP,0.265
23,RRIRRRPPRLPRPRPRPWWIPRP,0.249
24,RRIRTRPPRLPRPRPRPEICPRP,-0.0438
25,RRIRARPPRLPRPRPRPESTPRP,1.05

row,Sequence,shrunken log2 fold change
1,RRIRVRPPRLPRPRPRPYPGPRP,-0.183
2,RRIRKRPPRLPRPRPRPAYIPRP,0.0173
3,RRIRVRPPRLPRPRPRPFGTPRP,-0.0129
4,RRIRCRPPRLPRPRPRPRWVPRP,2.6
5,RRIRVRPPRLPRPRPRPAWGPRP,0.515
6,RRIRQRPPRLPRPRPRPKGEPRP,-0.031
7,RRIRGRPPRLPRPRPRPNTKPRP,-0.066
8,RRIRPRPPRLPRPRPRPRPEPRP,0.373
9,RRIRTRPPRLPRPRPRPAKMPRP,-0.0252
10,RRIRRRPPRLPRPRPRPPCWPRP,0.325
11,RRIRCRPPRLPRPRPRPLMQPRP,0.0849
12,RRIRERPPRLPRPRPRPNGEPRP,-0.0424
13,RRIRLRPPRLPRPRPRPAGFPRP,0.46
14,RRIRDRPPRLPRPRPRPWFFPRP,0.673
15,RRIRSRPPRLPRPRPRPHLYPRP,-0.02
16,RRIRYRPPRLPRPRPRPPSVPRP,-0.209
17,RRIRNRPPRLPRPRPRPFTWPRP,-0.62
18,RRIRIRPPRLPRPRPRPDWIPRP,-1.16
19,RRIRVRPPRLPRPRPRPWVAPRP,-0.00183
20,RRIRPRPPRLPRPRPRPTQQPRP,0.827
21,RRIRNRPPRLPRPRPRPYCGPRP,-0.352
22,RRIRQRPPRLPRPRPRPTYHPRP,-0.184
23,RRIRCRPPRLPRPRPRPPWYPRP,-0.0833
24,RRIRNRPPRLPRPRPRPHTSPRP,-0.268
25,RRIRWRPPRLPRPRPRPAKNPRP,0.263

row,Sequence,shrunken log2 fold change
1,RRIRHRPPRLPRPRPRPCLTPRP,-0.0273
2,RRIRWRPPRLPRPRPRPLSKPRP,-0.0363
3,RRIRVRPPRLPRPRPRPYRNPRP,-0.0374
4,RRIRNRPPRLPRPRPRPPCLPRP,-0.236
5,RRIRYRPPRLPRPRPRPLMCPRP,-0.632
6,RRIRRRPPRLPRPRPRPGWTPRP,0.326
7,RRIRLRPPRLPRPRPRPNTEPRP,0.019
8,RRIRWRPPRLPRPRPRPVMNPRP,-0.133
9,RRIRQRPPRLPRPRPRPQDRPRP,-0.254
10,RRIRKRPPRLPRPRPRPMQCPRP,-0.0161
11,RRIRIRPPRLPRPRPRPVTAPRP,-0.299
12,RRIRVRPPRLPRPRPRPCPLPRP,-0.418
13,RRIRPRPPRLPRPRPRPKTIPRP,-0.0767
14,RRIRGRPPRLPRPRPRPVPGPRP,0.742
15,RRIRIRPPRLPRPRPRPRDLPRP,0.067
16,RRIRKRPPRLPRPRPRPGKTPRP,-0.0179
17,RRIRSRPPRLPRPRPRPPCQPRP,-0.0943
18,RRIRTRPPRLPRPRPRPHHDPRP,-0.469
19,RRIRTRPPRLPRPRPRPSIYPRP,-0.513
20,RRIRTRPPRLPRPRPRPFQAPRP,-0.0372
21,RRIRCRPPRLPRPRPRPHGKPRP,-0.15
22,RRIRPRPPRLPRPRPRPCHQPRP,0.0122
23,RRIRARPPRLPRPRPRPANLPRP,0.177
24,RRIRGRPPRLPRPRPRPHWHPRP,0.0418
25,RRIRIRPPRLPRPRPRPGREPRP,0.311

row,Sequence,shrunken log2 fold change
1,RRIRGRPPRLPRPRPRPVVHPRP,0.254
2,RRIRLRPPRLPRPRPRPPPFPRP,0.791
3,RRIRERPPRLPRPRPRPHHYPRP,0.125
4,RRIRIRPPRLPRPRPRPLCEPRP,-0.332
5,RRIRGRPPRLPRPRPRPQHMPRP,0.231
6,RRIRNRPPRLPRPRPRPLFWPRP,0.0854
7,RRIRWRPPRLPRPRPRPFACPRP,0.00273
8,RRIRYRPPRLPRPRPRPCFNPRP,-0.262
9,RRIRWRPPRLPRPRPRPMFPPRP,0.0483
10,RRIRIRPPRLPRPRPRPYSIPRP,-0.129
11,RRIRKRPPRLPRPRPRPDDWPRP,1.73
12,RRIRCRPPRLPRPRPRPGTNPRP,-0.15
13,RRIRTRPPRLPRPRPRPKIGPRP,-0.0689
14,RRIRRRPPRLPRPRPRPKHGPRP,-0.0664
15,RRIRARPPRLPRPRPRPYMIPRP,-0.494
16,RRIRNRPPRLPRPRPRPIMQPRP,-0.0584
17,RRIRCRPPRLPRPRPRPFNKPRP,-0.305
18,RRIRRRPPRLPRPRPRPTAIPRP,0.211
19,RRIRWRPPRLPRPRPRPPHGPRP,0.428
20,RRIRTRPPRLPRPRPRPMTWPRP,0.0637
21,RRIRRRPPRLPRPRPRPDNFPRP,0.028
22,RRIRRRPPRLPRPRPRPVNVPRP,-0.0902
23,RRIRHRPPRLPRPRPRPARSPRP,0.0188
24,RRIRHRPPRLPRPRPRPNLEPRP,0.127
25,RRIRRRPPRLPRPRPRPEFMPRP,0.377

row,Sequence,shrunken log2 fold change
1,RRIRDRPPRLPRPRPRPQPAPRP,0.559
2,RRIRPRPPRLPRPRPRPDMSPRP,-0.303
3,RRIRRRPPRLPRPRPRPFCPPRP,-0.106
4,RRIRWRPPRLPRPRPRPWGEPRP,0.039
5,RRIRSRPPRLPRPRPRPGQIPRP,-0.227
6,RRIRIRPPRLPRPRPRPMYTPRP,-0.244
7,RRIRMRPPRLPRPRPRPREMPRP,0.657
8,RRIRYRPPRLPRPRPRPYNWPRP,-0.593
9,RRIRMRPPRLPRPRPRPKIKPRP,0.248
10,RRIRDRPPRLPRPRPRPQRIPRP,-0.142
11,RRIRYRPPRLPRPRPRPLMFPRP,-1.04
12,RRIRRRPPRLPRPRPRPTMYPRP,0.0102
13,RRIRFRPPRLPRPRPRPELTPRP,0.136
14,RRIRMRPPRLPRPRPRPFMQPRP,-0.00899
15,RRIRQRPPRLPRPRPRPPKSPRP,0.18
16,RRIRDRPPRLPRPRPRPPGVPRP,0.127
17,RRIRWRPPRLPRPRPRPCFQPRP,-0.222
18,RRIRVRPPRLPRPRPRPKTLPRP,-0.0985
19,RRIRCRPPRLPRPRPRPSFLPRP,-0.718
20,RRIRTRPPRLPRPRPRPLYFPRP,-0.418
21,RRIRFRPPRLPRPRPRPTLRPRP,0.0831
22,RRIRVRPPRLPRPRPRPWEFPRP,-0.102
23,RRIRYRPPRLPRPRPRPARLPRP,-0.0429
24,RRIRWRPPRLPRPRPRPYDPPRP,-0.126
25,RRIRSRPPRLPRPRPRPGVTPRP,0.0674

row,Sequence,shrunken log2 fold change
1,RRIRRRPPRLPRPRPRPPPRPRP,1.32
2,RRIRDRPPRLPRPRPRPIFHPRP,-0.158
3,RRIRDRPPRLPRPRPRPHWHPRP,-0.192
4,RRIRARPPRLPRPRPRPYGGPRP,-0.221
5,RRIRDRPPRLPRPRPRPFRQPRP,-0.137
6,RRIRCRPPRLPRPRPRPKCAPRP,0.121
7,RRIRCRPPRLPRPRPRPSAKPRP,0.189
8,RRIRNRPPRLPRPRPRPPACPRP,0.301
9,RRIRMRPPRLPRPRPRPGSAPRP,1.4
10,RRIRKRPPRLPRPRPRPVLLPRP,0.122
11,RRIRFRPPRLPRPRPRPRCVPRP,-0.0244
12,RRIRPRPPRLPRPRPRPDYKPRP,-0.66
13,RRIRCRPPRLPRPRPRPYDKPRP,-0.985
14,RRIRIRPPRLPRPRPRPDSEPRP,0.0636
15,RRIRPRPPRLPRPRPRPKRWPRP,0.441
16,RRIRWRPPRLPRPRPRPLIVPRP,0.0513
17,RRIRLRPPRLPRPRPRPPWHPRP,0.193
18,RRIRHRPPRLPRPRPRPYDKPRP,-0.961
19,RRIRNRPPRLPRPRPRPDACPRP,-0.0102
20,RRIRKRPPRLPRPRPRPGFGPRP,1.35
21,RRIRHRPPRLPRPRPRPIVGPRP,-0.476
22,RRIRHRPPRLPRPRPRPNYEPRP,-0.586
23,RRIRERPPRLPRPRPRPWKDPRP,-0.162
24,RRIRERPPRLPRPRPRPECSPRP,-0.0948
25,RRIRMRPPRLPRPRPRPFYDPRP,-0.12
